Assay results as given in JP2014141434A (dated 2014).

Legend:
Assay in all cases: flow cytometry, transfected HEK293 cells, 10 μg/mL
[1] = biological target: T1, N末端FLAG−tag付加型カニクイザルROBO4 cynoROBO4−2 (cynomolgus monkey, UniProt Q8WZ75 28-1007 (human entry))
T1 construct: also called pCI−FLAG−cynoROBO4−2
T1 chain: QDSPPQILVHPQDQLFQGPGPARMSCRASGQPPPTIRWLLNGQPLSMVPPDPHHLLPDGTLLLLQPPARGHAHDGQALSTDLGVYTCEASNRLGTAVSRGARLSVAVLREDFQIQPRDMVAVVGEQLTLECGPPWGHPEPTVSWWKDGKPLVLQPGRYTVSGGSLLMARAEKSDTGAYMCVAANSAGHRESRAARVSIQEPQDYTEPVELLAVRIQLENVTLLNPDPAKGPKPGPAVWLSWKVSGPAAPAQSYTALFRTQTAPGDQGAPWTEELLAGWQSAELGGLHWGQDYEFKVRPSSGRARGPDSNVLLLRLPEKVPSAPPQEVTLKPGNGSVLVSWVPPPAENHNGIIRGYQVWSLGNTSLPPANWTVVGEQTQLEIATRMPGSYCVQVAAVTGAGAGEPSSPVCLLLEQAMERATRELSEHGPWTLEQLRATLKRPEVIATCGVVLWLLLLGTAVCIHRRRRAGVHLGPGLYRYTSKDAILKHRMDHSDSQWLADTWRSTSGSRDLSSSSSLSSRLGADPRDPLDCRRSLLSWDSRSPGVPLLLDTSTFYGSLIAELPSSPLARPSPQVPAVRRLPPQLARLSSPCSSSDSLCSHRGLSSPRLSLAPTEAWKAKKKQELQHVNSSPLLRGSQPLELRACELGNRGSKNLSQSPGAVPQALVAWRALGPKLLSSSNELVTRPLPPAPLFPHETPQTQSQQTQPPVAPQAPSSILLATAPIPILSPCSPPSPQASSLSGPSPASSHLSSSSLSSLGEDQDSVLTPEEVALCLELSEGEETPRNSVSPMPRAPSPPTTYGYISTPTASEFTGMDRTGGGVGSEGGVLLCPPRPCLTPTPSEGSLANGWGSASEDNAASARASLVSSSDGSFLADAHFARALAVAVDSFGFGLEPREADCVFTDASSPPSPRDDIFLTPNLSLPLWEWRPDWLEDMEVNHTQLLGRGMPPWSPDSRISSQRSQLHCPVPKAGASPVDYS

[2] = biological target: T2, N末端FLAG−tag付加型カニクイザルROBO4 cynoROBO4−1 (cynomolgus monkey, UniProt Q8WZ75 28-1007 (human entry))
T2 construct: also called pCI−FLAG−cynoROBO4−1
T2 chain: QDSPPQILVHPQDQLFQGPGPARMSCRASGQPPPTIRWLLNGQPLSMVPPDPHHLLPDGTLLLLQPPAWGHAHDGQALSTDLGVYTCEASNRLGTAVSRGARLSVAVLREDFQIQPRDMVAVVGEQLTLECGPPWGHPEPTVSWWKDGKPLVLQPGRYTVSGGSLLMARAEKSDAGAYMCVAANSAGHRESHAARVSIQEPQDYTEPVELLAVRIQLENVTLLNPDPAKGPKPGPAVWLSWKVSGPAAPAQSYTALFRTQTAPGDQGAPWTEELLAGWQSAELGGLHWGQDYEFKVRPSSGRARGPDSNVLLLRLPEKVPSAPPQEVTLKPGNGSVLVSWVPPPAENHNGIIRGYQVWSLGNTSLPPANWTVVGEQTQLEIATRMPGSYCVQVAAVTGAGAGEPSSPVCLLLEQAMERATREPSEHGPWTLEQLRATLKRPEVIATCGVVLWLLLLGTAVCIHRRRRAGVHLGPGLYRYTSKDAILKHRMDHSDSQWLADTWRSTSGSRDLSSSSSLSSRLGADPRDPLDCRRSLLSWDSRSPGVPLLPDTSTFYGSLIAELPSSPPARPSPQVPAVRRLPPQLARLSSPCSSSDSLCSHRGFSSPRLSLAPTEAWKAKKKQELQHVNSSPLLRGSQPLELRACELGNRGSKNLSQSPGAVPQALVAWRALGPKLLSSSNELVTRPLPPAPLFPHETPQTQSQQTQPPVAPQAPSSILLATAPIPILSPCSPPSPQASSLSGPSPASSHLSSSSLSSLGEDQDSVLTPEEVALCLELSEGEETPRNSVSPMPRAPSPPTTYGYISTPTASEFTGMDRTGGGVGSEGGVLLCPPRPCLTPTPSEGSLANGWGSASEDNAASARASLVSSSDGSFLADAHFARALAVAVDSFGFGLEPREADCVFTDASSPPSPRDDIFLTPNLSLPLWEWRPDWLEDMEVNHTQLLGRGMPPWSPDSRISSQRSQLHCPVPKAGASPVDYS

[3] = biological target: T3, N末端FLAG−tag付加型ヒトROBO4細胞外領域ドメイン欠損体 hROBO4−132 (human, UniProt Q8WZ75 132-1007)
T3 construct: On HEK293 cells; also called pCI−FLAG−hROBO4−132; pCI−hROBO4−132
T3 sequence: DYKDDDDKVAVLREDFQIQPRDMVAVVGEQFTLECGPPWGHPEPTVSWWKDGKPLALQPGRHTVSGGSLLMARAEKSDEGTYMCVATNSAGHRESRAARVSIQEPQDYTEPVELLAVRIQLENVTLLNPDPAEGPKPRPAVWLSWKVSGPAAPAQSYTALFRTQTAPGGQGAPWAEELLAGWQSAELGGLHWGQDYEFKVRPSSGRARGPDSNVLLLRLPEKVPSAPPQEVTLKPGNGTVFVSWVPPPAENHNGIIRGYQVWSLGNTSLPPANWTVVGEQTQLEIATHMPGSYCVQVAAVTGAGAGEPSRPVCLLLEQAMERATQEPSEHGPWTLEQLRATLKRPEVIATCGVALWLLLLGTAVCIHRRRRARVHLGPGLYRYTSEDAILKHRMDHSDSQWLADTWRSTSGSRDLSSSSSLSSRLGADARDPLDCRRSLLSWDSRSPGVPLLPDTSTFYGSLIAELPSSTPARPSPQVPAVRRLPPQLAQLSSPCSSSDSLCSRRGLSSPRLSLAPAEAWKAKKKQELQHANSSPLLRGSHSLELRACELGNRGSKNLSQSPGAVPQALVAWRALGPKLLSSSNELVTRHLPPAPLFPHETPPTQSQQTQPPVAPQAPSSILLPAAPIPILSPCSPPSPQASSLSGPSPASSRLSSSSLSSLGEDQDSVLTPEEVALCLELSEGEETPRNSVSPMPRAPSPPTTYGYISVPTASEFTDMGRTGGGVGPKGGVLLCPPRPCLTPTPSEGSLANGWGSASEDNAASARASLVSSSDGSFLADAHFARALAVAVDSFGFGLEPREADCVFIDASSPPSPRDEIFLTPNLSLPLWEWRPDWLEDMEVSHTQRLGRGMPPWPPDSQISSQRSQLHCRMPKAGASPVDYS

Measured: binding result

B1: 抗ROBO4マウスモノクローナル抗体 MAb1 (antibody, V domains shown)
VH: EVQLVESGGGLVKPGGSLKLSCAASGFTFSTYAMSWVRQTPEKRLEWVATISNGGTYTYYPDSVKGRFTISRDNAENTLYLQMSSLRSEDTAMYFCARLIYYDYLDYWGHGTTLTVSS
VL: DAVMTQTPLSLPVSLGDQASISCRSSQSLENSNGNTYLNWYFQKPGQSPQLLIYRVSNRFSGVLDRFSGSGSGTDFTLKISRVEAEDFGVYFCLQVTHVPWTFGGGTKLEIKR
notes: Mouse IgG1 (gamma 1) / kappa from a hybridoma; The constant regions are not in the listing; also called MAb1
binds: all assays above
